Target: the molecule itself
Experiment: SDS-PAGE and Western blot of cell lysate without cross-linker

B1: human apical sodium-dependent bile acid transporter, wild type (wt-hASBT) (natural protein, UniProt Q12908 1-348, looked up)
chain: MNDPNSCVDNATVCSGASCVVPESNFNNILSVVLSTVLTILLALVMFSMGCNVEIKKFLGHIKRPWGICVGFLCQFGIMPLTGFILSVAFDILPLQAVVVLIIGCCPGGTASNILAYWVDGDMDLSVSMTTCSTLLALGMMPLCLLIYTKMWVDSGSIVIPYDNIGTSLVSLVVPVSIGMFVNHKWPQKAKIILKIGSIAGAILIVLIAVVGGILYQSAWIIAPKLWIIGTIFPVAGYSLGFLLARIAGLPWYRCRTVAFETGMQNTQLCSTIVQLSFTPEELNVVFTFPLIYSIFQLAFAAIFLGFYVAYKKCHGKNKAEIPESKENGTEPESSFYKANGGFQPDEK
modifications: N-glycosylated at Asn10 (glycosylated ~41 kDa and non-glycosylated ~37 kDa forms both seen)
**Q.** With B1 as the protein, how does the “stoichiometry N” value read?
**A.** 2

From publication PMC5780253 (Biochimica et biophysica acta, 2017)
